Test [1] deals with T1, SARS-CoV-2 RBD (wildtype), residues 319-541 of S-protein (SARS-CoV-2 wildtype, UniProt P0DTC2). Kind of test: cell-based or functional assay.
The target of test [2] is T1, SARS-CoV-2 RBD (wildtype), residues …. Description: BLI.

As usually defined, the Kd is a measure of binding affinity in units of concentration.

B1: R1-26 (mAb, human IgG1) (antibody, V domains shown)
VH: EVQLVESGGGLVQPGGSLRLSCAASGFTFSSYWMSWVRQAPGKGLEWVANIKQDGSEKYYVDSVKGRFTISRDNAKNSLYLQMNSLRAEDTAVYYCARGQLGPWVGVDYWGQGTLVTVSS
VL: NFMLTQPHSVSESPGKTVTISCTGSSGSIASNYVQWYQQRPGSAPTTVIYEDNQRPSGVPDRFSGSIDSSSNSASLTISGLKTEDEADYYCQSYDSSNWVFGGGTQLTVL
B1: the “neutralisation of a pseudovirus displaying WT SARS-CoV-2 S-protein, IC50” value in test [1] came out at 2.7 nM. For the same molecule, in test [2], the Kd came out at 3.8 nM.
